# In patent US20180200345A1, “PROCESS AND COMPOSITION FOR LOW DOSE INSEMINATION” (IMV TECHNOLOGIES, priority 2015, published 2018):
# B1: PNA: lectin with affinity for β-D-(1-3)-D-galactosamine (protein, UniProt P02872 24-273, looked up)
# Galactose-binding lectin: AETVSFNFNSFSEGNPAINFQGDVTVLSNGNIQLTNLNKVNSVGRVLYAMPVRIWSSATGNVASFLTSFSFEMKDIKDYDPADGIIFFIAPEDTQIPAGSIGGGTLGVSDTKGAGHFVGVEFDTYSNSEYNDPPTDHVGIDVNSVDSVKTVPWNSVSGAVVKVTVIYDSSTKTLSVAVTNDNGDITTIAQVVDLKAKLPERVKFGFSASGSLGGRQIHLIRSWSFTSTLITTTRRSIDNNEKKIMNMASA
# System: uterine epithelial cells (UEC)
# Assay: Sperm binding to UEC monolayer pre-incubated with lectin
# Format: cell-based, porcine
# Settings: UEC pre-incubated with lectin 10 μg/ml 15 min, then sperm 10 min
# Procedure: Confluent UEC were grown on glass cover slips form primary cell cultures. In total, uteri from 78 primiparous German Landrace or German Edelschwein gilts aged 8-10 months and with live weights of over 110 kg, were retrieved to harvest primary cells. All animals were maintained and handled according to the German regulations for animal welfare. Gilts were monitored for natural oestrus and slaughtered according to standing heat, i.e. at the time when artificial insemination would have been performed. Gilts were stunned electrically and subsequently slaughtered by exsanguination. Three minutes after bleeding the abdomen was opened and the uterus removed in toto. Further, the ovaries, oviducts and the mesometrium were removed by cutting with sterile scissors without damaging the myometrium. The uterine horns were ligated with stitching thread between and a section of 20-25 cm was cut off. The sections were placed in sterile phosphate buffered saline (PBS) without Ca^++ and Mg^++ (Karl Roth, Karlsruhe, Germany) containing 2% Penicillin/Streptomycin (P/S; PAA, Pasching, Austria) in a glass bottle and kept at 5° C. for 45 min. After 45 min at 5° C. the uterine sections were removed from the bottle and placed on cellulose tissue under a sterile laminar flow system. The stitching material was removed. […]
molecule,measurement,value
B1,effect on sperm binding to UEC (in words),"some areas showed massive sperm binding as seen with untreated UEC, whereas others were not populated at all"
